We go through one substance from patent US5854388A, “Angiotensin IV peptides and receptor” (Washington State University Research Foundation, priority 1994, dated 1998).

The conditions of series [1]: in vivo; cited from earlier work.
Series [2] is described as follows: Stability of angiotensin peptides in binding buffer (reverse phase HPLC). It is filed as physicochemical. The settings on record: 4 h at 37° C. How it is done:
Binding studies were carried out in a buffer (below) containing an extensive cocktail of inhibitors that was designed to minimize metabolism of both the receptor and the test ligand, i.e., the buffer contained 5 mM EDTA, 0.2% BSA, […] Bestatin, 50 μM Plummer's inhibitor, and 100 μM PMSF.

Series [3] concerns the target T1, AT4 receptor (Oryctolagus cuniculus, UniProt G1SFU4).
T1 sequence (G1SFU4 1-1025): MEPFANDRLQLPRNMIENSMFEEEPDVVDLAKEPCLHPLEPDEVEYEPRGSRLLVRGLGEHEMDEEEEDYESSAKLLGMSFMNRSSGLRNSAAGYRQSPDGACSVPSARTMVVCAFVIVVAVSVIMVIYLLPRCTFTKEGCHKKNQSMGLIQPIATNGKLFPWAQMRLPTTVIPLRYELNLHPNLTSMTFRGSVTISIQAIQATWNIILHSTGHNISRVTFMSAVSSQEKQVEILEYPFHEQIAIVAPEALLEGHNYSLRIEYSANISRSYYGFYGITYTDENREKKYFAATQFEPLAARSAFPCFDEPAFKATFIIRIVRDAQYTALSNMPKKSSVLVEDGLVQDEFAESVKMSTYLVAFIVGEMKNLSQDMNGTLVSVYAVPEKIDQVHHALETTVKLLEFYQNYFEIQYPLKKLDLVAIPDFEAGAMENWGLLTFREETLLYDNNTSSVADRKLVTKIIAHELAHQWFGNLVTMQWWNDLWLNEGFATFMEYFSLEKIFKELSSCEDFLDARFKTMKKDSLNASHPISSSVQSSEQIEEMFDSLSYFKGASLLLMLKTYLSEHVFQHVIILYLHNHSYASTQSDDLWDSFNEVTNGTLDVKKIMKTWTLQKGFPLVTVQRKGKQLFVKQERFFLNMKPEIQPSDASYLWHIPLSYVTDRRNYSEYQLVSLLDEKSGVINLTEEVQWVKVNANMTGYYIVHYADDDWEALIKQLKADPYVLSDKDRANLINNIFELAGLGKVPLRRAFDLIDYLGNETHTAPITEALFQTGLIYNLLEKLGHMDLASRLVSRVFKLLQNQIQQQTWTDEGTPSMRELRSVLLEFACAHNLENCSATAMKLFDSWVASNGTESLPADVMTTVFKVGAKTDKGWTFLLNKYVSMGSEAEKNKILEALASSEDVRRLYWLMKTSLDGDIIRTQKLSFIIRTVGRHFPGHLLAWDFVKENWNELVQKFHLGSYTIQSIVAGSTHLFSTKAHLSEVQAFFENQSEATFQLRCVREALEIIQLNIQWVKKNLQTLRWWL
Kind of series: 125I-AIV binding and competition, rabbit heart P2 membranes. The settings on record: competition of 0.5 nM 125I-AIV, 120 min, 37° C.

The target in series [4] is T2, AT4 receptor (Bos taurus, UniProt F1N1Q8).
T2 sequence (F1N1Q8 1-1022): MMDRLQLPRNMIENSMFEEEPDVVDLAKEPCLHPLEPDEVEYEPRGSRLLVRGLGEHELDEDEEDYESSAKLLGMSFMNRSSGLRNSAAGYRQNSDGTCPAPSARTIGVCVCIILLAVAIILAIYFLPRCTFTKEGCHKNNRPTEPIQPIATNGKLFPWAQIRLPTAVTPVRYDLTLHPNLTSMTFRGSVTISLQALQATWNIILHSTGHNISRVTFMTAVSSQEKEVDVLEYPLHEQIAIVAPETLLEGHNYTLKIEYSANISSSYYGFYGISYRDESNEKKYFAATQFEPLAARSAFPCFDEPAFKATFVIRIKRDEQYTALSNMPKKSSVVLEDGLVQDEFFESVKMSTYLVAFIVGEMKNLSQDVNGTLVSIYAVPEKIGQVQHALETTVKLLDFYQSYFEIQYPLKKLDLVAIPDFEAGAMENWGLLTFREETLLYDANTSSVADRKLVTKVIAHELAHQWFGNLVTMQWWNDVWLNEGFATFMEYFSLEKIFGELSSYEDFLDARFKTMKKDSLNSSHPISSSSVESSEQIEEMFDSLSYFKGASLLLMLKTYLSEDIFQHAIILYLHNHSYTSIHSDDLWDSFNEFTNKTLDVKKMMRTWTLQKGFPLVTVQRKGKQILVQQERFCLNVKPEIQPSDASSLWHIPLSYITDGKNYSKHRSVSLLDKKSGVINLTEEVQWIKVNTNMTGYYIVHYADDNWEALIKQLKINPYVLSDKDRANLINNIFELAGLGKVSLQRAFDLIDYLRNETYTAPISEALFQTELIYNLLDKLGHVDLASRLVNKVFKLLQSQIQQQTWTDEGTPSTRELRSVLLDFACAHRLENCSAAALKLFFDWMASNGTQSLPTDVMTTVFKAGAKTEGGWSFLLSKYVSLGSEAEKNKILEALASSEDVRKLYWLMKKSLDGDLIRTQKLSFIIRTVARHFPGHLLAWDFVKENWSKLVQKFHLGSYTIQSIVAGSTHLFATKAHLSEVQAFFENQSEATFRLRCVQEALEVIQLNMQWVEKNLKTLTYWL
Kind of series: 125I-AIV binding and competition, bovine adrenal cortical membranes. The settings on record: read-out: 125I-AIV Binding (Ki); competition.

Series [5] concerns the target T2, AT4 receptor. Kind of series: 125I-AIV binding and competition, coronary venular endothelial cell (CVEC) membranes. Details: species or system bovine. The settings on record: competition of 0.5 nM 125I-AIV; read-out: Ki.
The conditions of series [6]: in vivo; cited from earlier work. The source holds these as a separate data set.
Series [7] concerns rat kidney. Kind of series: Renal cortical blood flow (laser doppler) and arterial pressure after infusion into the renal artery. It is filed as in vivo. The settings on record: infusion into renal artery.
In series [8] the test system is rats. In words: Passive avoidance conditioning after icv injection. It is filed as in vivo, rat.
Series [9] addresses T3, AT1 receptor (AII receptor) (Bos taurus, UniProt P25104).
T3 construct: from tissue; host or cells: bovine adrenal cortex membranes
T3 sequence (P25104 1-359): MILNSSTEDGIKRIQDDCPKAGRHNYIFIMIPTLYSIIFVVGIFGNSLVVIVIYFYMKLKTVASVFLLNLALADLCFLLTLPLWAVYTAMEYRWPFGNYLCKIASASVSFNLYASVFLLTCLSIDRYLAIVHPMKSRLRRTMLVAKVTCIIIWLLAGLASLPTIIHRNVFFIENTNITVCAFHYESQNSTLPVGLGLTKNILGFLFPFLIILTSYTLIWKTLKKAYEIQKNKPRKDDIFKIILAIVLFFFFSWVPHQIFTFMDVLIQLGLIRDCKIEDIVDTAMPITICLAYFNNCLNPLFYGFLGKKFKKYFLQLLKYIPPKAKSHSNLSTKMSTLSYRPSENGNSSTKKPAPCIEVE
It is filed as binding, bovine. The settings on record: 37° C., 2 h, HPLC.

A value given as a limit tells only on which side of the number the result lay.

For “Asp1 Arg2 Val3 Tyr4 Ile5 His6 Pro7 Phe8 (DRVYIHPF) [AII]”, the half-lives in [1] was 4.4 min. Besides, the “hydrolysis in binding buffer” value in series [2] is “less than 10%”. Further, the results for the Ki in [3], in series [4] and in series [5] were more than 1000 nM, more than 1000 nM and 194 ± 44.5 nM, respectively. In series [6], the “metabolized during transit through the kidney” value was 72-76%. In addition, the “effect on renal blood flow (in words)” value in [7] is listed as “dramatic decrease in renal blood flow”. Moreover, in series [8], the “passive avoidance latency / cognitive effect (in words)” value is reported as “no specific effect”. For the same substance, in series [9], the “overall hydrolysis under conditions of the assay” value is given as “less than 2%”.

One may read the Ki as a measure of affinity in units of concentration, obtained from inhibition or displacement.
